In series [1] the target is CBP-Upf1-CH-His (S. cerevisiae). The series is described as follows: fluorescence polarisation.
In another series the target is T1, CBP-Upf1-CH-HD I693R (S. cerevisiae, UniProt P30771 54-851, I693R).
T1 sequence: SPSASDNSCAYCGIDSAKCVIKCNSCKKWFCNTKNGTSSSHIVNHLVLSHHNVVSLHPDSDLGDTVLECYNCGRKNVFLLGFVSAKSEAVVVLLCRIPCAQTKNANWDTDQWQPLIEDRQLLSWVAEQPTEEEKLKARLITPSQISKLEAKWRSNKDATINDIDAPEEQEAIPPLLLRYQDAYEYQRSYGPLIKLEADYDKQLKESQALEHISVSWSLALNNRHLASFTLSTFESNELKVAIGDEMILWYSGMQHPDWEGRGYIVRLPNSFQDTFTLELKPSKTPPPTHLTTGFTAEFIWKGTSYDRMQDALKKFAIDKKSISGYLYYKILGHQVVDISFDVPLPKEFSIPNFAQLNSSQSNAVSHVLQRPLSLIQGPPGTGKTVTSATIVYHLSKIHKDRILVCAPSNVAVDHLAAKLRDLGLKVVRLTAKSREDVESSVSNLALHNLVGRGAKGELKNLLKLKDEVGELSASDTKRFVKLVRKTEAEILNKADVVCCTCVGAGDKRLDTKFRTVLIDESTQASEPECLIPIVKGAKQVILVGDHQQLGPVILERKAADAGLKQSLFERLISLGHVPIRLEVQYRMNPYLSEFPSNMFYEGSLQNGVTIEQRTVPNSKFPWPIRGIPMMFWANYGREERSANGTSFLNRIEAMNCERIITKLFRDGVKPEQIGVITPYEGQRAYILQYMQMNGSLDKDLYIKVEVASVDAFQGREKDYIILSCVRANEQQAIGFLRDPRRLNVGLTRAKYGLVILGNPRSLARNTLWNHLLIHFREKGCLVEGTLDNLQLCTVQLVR
The series is described as follows: pull-down.

The target of a further series is T2, Dcp2-UBM (Saccharomyces cerevisiae, UniProt P53550 434-720).
T2 sequence: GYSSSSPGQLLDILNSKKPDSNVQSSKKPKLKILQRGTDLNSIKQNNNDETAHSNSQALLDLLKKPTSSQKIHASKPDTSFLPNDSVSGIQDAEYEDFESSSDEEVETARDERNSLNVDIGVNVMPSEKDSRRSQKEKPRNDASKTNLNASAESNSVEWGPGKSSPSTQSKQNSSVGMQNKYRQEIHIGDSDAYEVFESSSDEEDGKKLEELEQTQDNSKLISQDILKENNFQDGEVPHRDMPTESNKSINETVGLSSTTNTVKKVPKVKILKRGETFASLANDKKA
The series is described as follows: pull-down.

The next series addresses T3, Upf1-FL;Dcp2-UBM (Saccharomyces cerevisiae;Saccharomyces …, UniProt P30771;P53550 1-971;434-720, |).
T3 sequence 1: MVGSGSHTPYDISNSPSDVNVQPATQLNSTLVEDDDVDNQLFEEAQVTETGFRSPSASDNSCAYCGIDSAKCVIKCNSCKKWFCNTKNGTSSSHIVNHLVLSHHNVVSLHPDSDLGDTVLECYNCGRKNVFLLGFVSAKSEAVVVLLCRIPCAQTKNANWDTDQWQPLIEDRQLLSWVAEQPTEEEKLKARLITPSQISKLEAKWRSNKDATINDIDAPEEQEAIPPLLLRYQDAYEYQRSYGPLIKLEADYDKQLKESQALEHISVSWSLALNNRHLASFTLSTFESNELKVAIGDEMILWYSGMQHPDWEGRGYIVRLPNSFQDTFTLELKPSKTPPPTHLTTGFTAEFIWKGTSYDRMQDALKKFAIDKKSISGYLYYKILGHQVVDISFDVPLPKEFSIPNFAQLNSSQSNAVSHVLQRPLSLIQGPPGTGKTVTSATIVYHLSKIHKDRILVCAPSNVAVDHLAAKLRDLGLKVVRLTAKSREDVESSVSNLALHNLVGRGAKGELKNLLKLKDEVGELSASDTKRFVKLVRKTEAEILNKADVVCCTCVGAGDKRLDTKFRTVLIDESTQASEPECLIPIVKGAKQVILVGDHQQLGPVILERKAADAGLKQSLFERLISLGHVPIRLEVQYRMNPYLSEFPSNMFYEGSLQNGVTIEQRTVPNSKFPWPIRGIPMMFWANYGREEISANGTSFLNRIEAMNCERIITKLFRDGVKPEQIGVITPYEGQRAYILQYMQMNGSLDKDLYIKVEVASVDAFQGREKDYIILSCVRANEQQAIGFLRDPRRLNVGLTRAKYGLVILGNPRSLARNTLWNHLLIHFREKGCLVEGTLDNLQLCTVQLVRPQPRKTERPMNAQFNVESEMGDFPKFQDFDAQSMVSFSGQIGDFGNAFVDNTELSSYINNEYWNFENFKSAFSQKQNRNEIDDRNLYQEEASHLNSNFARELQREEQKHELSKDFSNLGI
T3 sequence 2: T2 sequence
The series is described as follows: pull-down.

Another series concerns the target T4, Upf1-FL (Saccharomyces cerevisiae, UniProt P30771 1-971).
T4 sequence: T3 sequence 1
The series is described as follows: pull-down.

Another series concerns the target T5, Upf1-FL;Nmd4;Dcp2-UBM (Saccharomyces cerevisiae;Saccharomyces …, UniProt P30771;Q12129;P53550 1-971;1-218;434-720, ||).
T5 sequence 1: T3 sequence 1
T5 sequence 2: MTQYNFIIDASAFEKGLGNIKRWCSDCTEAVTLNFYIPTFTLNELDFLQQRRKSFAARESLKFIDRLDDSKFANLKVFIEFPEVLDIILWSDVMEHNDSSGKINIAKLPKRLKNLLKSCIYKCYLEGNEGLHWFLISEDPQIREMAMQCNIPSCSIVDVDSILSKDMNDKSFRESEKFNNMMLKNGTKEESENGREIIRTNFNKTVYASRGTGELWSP
T5 sequence 3: T2 sequence
Nature of the series: pull-down.

In another series the target is T6, Upf2-Ct (Saccharomyces cerevisiae, UniProt P38798 933-1089).
T6 sequence: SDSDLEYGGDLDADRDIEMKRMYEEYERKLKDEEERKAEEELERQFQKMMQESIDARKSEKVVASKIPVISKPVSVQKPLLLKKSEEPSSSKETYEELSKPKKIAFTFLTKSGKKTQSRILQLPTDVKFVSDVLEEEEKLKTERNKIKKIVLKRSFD
Nature of the series: pull-down.

The target in a further series is T7, Upf1-FL;Nmd4 (Saccharomyces cerevisiae;Saccharomyces …, UniProt P30771;Q12129 1-971;1-218, |).
T7 sequence 1: T3 sequence 1
T7 sequence 2: T5 sequence 2
The series is described as follows: pull-down.

Another series concerns the target T8, CBP-Upf1-CH-HD (S. cerevisiae, UniProt P30771 54-851).
T8 sequence: T1 sequence with R640I
The series is described as follows: native gel or EMSA. For orientation: A gel shift assay detects complexes by their altered migration in electrophoresis.

For series [2], the target named is T9, CBP-Upf1-FL (S.c. Upf1 full-length) (S. cerevisiae, UniProt P30771 1-971).
T9 sequence: T3 sequence 1
The series is described as follows: pull-down.

Residue numbers refer to the chain shown, from its start.

The Kd is the equilibrium constant for the complex coming apart. A high value points to a looser complex.

B1: Upf2 (933-1089)-His (domain or fragment)
chain: T6 sequence
Take B1: the Kd in series [1] was found to be 0.43 µM. Moreover, the binding result with CBP-Upf1-CH-HD I693R is reported as “binds”.

For CGUCCAUCUGGUCAUCUAGUGAUAUCAUCG (ssRNA) [3'-biotinylated RNA (30-mer in Methods, called 33-mer in Results)], the binding result in the series with Dcp2-UBM is recorded as “no binding”; in the series with Upf1-FL;Dcp2-UBM it was “binds”; with Upf1-FL, “binds”; with Upf1-FL;Nmd4;Dcp2-UBM, “binds”; with Upf2-Ct it was “no binding”; in the series with Upf1-FL;Nmd4, “binds”.

B2: Nmd4-His (C-terminal His-tagged Nmd4) (natural protein)
chain: T5 sequence 2
Regarding B2, the binding result (with CBP-Upf1-CH-HD; in series [2]) was “binds” each time.

For the origin of these results see paper PMC11897886 (Nucleic Acids Research, 2024).
